± gives the standard deviation of the averaged measurements.
Assay: total protein half-life in vivo (active degradation + dilution); higher = more stable protein
[1] = E. coli NCM3722 delta-clpP delta-lon delta-hslV, growth: N-lim chemostat, doubling time 6 h
[2] = wild type E. coli NCM3722, growth: C-lim chemostat, doubling time 3 h
[3] = wild type E. coli NCM3722, growth: C-lim chemostat, doubling time 6 h
[4] = wild type E. coli NCM3722, growth: C-lim chemostat, doubling time 12 h
[5] = E. coli NCM3722 delta-lon, growth: N-lim chemostat, doubling time 6 h
[6] = wild type E. coli NCM3722, growth: P-lim chemostat, doubling time 6 h
[7] = E. coli NCM3722 delta-clpP, growth: N-lim chemostat, doubling time 6 h
[8] = E. coli NCM3722 delta-hslV, growth: N-lim chemostat, doubling time 6 h
[9] = E. coli NCM3722 delta-smpB, growth: N-lim chemostat, doubling time 6 h
[10] = wild type E. coli NCM3722, growth: N-lim chemostat, doubling time 6 h
[11] = wild type E. coli NCM3722, growth: P-lim chemostat, doubling time 12 h
[12] = wild type E. coli NCM3722, growth: N-lim chemostat, doubling time 12 h

Row | Sequence | total protein half-life in vivo [1] | total protein half-life in vivo [2] | total protein half-life in vivo [3] | total protein half-life in vivo [4] | total protein half-life in vivo [5] | total protein half-life in vivo [6] | total protein half-life in vivo [7] | total protein half-life in vivo [8] | total protein half-life in vivo [9] | total protein half-life in vivo [10] | total protein half-life in vivo [11] | total protein half-life in vivo [12]
1 | MLTKDLSITFCGVKFPNPFCLSSSPVGNCYEMCAKAYDTGWGGVVFKTIGFFIANEVSPRFDHLVKEDTGFIGFKNMEQIAEHPLEENLAALRRLKEDYPDKVLIASIMGENEQQWEELARLVQEAGADMIECNFSCPQMTSHAMGSDVGQSPELVEKYCRAVKRGSTLPMLAKMTPNIGDMCEVALAAKRGGADGIAAINTVKSITNIDLNQKIGMPIVNGKSSISGYSGKAVKPIALRFIQQMRTHPELRDFPISGIGGIETWEDAAEFLLLGAATLQVTTGIMQYGYRIVEDMASGLSHYLADQGFDSLQEMVGLANNNIVPAEDLDRSYIVYPRINLDKCVGCGRCYISCYDGGHQAMEWSEKTRTPHCNTEKCVGCLLCGHVCPVGCIELGEVKFKKGEKEHPVTL | 4.6 h | 0.869 ± 0.52 h | 2.35 h | 1.67 ± 0.23 h |  |  |  |  |  |  |  | 
2 | MLTTLIYRSHIRDDEPVKKIEEMVSIANRRNMQSDVTGILLFNGSHFFQLLEGPEEQVKMIYRAICQDPRHYNIVELLCDYAPARRFGKAGMELFDLRLHERDDVLQAVFDKGTSKFQLTYDDRALQFFRTFVLATEQSTYFEIPAEDSWLFIADGSDKELDSCALSPTINDHFAFHPIVDPLSRRIIAFEAIVQKNEDSPSAIAVGQRKDGEIYTADLKSKALAFTMAHALELGDKMISINLLPMTLVNEPDAVSFLLNEIKANALVPEQIIVEFTESEVISRFDEFAEAIKSLKAAGISVAIDHFGAGFAGLLLLSRFQPDRIKISQELITNVHKSGPRQAIIQAIIKCCTSLEIQVSAMGVATPEEWMWLESAGIEMFQGDLFAKAKLNGIPSIAWPEKK | 5.85 ± 0.18 h |  | 2.73 ± 2.2 h |  | 1.79 ± 0.32 h | 0.443 h |  |  |  |  |  | 
3 | MLTVKQIEAAKPKEKPYRLLDGNGLYLYVPVSGKKVWQLRYKIDGKEKILTVGKYPLMTLQEARDKAWTARKDISVGIDPVKAKKASSNNNSFSAIYKEWYEHKKQVWSVGYATELAKMFDDDILPIIGGLEIQDIEPMQLLEVIRRFEDRGAMERANKARRRCGEVFRYAIVTGRAKYNPAPDLADAMKGYRKKNFPFLPADQIPAFNKALATFSGSIVSLIATKVLRYTALRTKELRSMLWKNVDFENRIITIDASVMKGRKIHVVPMSDQVVELLTTLSSITKPVSEFVFAGRNDKKKPICENAVLLVIKQIGYEGLESGHGFRHEFSTIMNEHEWPADAIEVQLAHANGGSVRGIYNHAQYLDKRREMMQWWADWLDEKVE | 6.44 ± 2.1 h | 3.123 ± 0.013 h | 5.53 ± 0.077 h | 10.3 ± 0.26 h | 5.37 ± 0.098 h | 5.34 ± 0.46 h | 5.79 ± 0.58 h | 5.96 ± 0.24 h | 5.02 ± 0.39 h | 5.503 ± 0.0091 h | 10.8 ± 1.7 h | 
4 | MLVSKKPMVLVILDGYGYREEQQDNAIFSAKTPVMDALWANRPHTLIDASGLEVGLPDRQMGNSEVGHVNLGAGRIVYQDLTRLDVEIKDRAFFANPVLTGAVDKAKNAGKAVHIMGLLSAGGVHSHEDHIMAMVELAAERGAEKIYLHAFLDGRDTPPRSAESSLKKFEEKFAALGKGRVASIIGRYYAMDRDNRWDRVEKAYDLLTLAQGEFQADTAVAGLQAAYARDENDEFVKATVIRAEGQPDAAMEDGDALIFMNFRADRAREITRAFVNADFDGFARKKVVNVDFVMLTEYAADIKTAVAYPPASLVNTFGEWMAKNDKTQLRISETEKYAHVTFFFNGGVEESFKGEDRILINSPKVATYDLQPEMSSAELTEKLVAAIKSGKYDTIICNYPNGDMVGHTGVMEAAVKAVEALDHCVEEVAKAVESVGGQLLITADHGNAEQMRDPATGQAHTAHTNLPVPLIYVGDKNVKAVEGGKLSDIAPTMLSLMGMEIPQEMTGKPLFIVE | 5.19 ± 0.06 h | 2.85 ± 0.1 h | 5.58 ± 0.34 h | 10 ± 1.6 h | 4.97 ± 0.22 h | 5.1 ± 0.24 h | 5.05 ± 0.79 h | 5.19 ± 0.44 h | 4.458 ± 0.033 h | 4.76 ± 0.1 h | 10.35 ± 0.034 h | 7.769 ± 0.048 h
5 | MLYIFDLGNVIVDIDFNRVLGAWSDLTRIPLASLKKSFHMGEAFHQHERGEISDEAFAEALCHEMALPLSYEQFSHGWQAVFVALRPEVIAIMHKLREQGHRVVVLSNTNRLHTTFWPEEYPEIRDAADHIYLSQDLGMRKPEARIYQHVLQAEGFSPSDTVFFDDNADNIEGANQLGITSILVKDKTTIPDYFAKVLC [P0A8Y3] |  | 2.92 ± 0.13 h | 6.31 ± 0.65 h | 9.46 ± 0.36 h | 5 ± 0.69 h | 5.18 ± 0.06 h | 5.75 ± 1.6 h | 3.94 ± 0.21 h | 4.212 ± 0.04 h | 4.14 ± 0.74 h | 9.4 ± 0.48 h | 6.16 ± 0.12 h
6 | MLYIFRLIITVIYSILVCVFGSIYCLFSPRNPKHVATFGHMFGRLAPLFGLKVECRKPTDAESYGNAIYIANHQNNYDMVTASNIVQPPTVTVGKKSLLWIPFFGQLYWLTGNLLIDRNNRTKAHGTIAEVVNHFKKRRISIWMFPEGTRSRGRGLLPFKTGAFHAAIAAGVPIIPVCVSTTSNKINLNRLHNGLVIVEMLPPIDVSQYGKDQVRELAAHCRSIMEQKIAELDKEVAEREAAGKV | 5.89 h |  | 6.42 h |  |  | 6.42 ± 1.2 h | 6.07 ± 0.43 h |  | 4.95 h | 5.93 ± 0.29 h | 11.8 ± 0.39 h | 12.2 ± 1.3 h
7 | MMDLDNIPDTQTEAEELEEVVMGLIINSGQARSLAYAALKQAKQGDFAAAKAMMDQSRMALNEAHLVQTKLIEGDAGEGKMKVSLVLVHAQDHLMTSMLARELITELIELHEKLKA | 4.73 h | 1.44 h | 1.82 ± 0.14 h | 2.66 h |  |  | 2.85 ± 0.031 h |  |  |  |  | 
8 | MMDNMQTEAQPTRTRILNAAREIFSENGFHSASMKAICKSCAISPGTLYHHFISKEALIQAIILQDQERALARFREPIEGIHFVDYMVESIVSLTHEAFGQRALVVEIMAEGMRNPQVAAMLKNKHMTITEFVAQRMRDAQQKGEISPDINTAMTSRLLLDLTYGVLADIEAEDLAREASFAQGLRAMIGGILTAS [P0ACT6] | 6.37 ± 1.1 h | 3.36 ± 0.77 h | 6.053 ± 0.026 h |  |  | 4.64 ± 0.12 h | 5.2 ± 0.53 h | 4.39 ± 0.71 h | 5.56 ± 0.51 h | 4.87 ± 0.49 h | 10.3 ± 0.2 h | 9.35 ± 0.28 h
9 | MMEFILSHVEKGVMTLTLNRPERLNSFNDEMHAQLAECLKQVERDDTIRCLLLTGAGRGFCAGQDLNDRNVDPTGPAPDLGMSVERFYNPLVRRLAKLPKPVICAVNGVAAGAGATLALGGDIVIAARSAKFVMAFSKLGLIPDCGGTWLLPRVAGRARAMGLALLGNQLSAEQAHEWGMIWQVVDDETLADTAQQLARHLATQPTFGLGLIKQAINSAETNTLDTQLDLERDYQRLAGRSADYREGVSAFLAKRSPQFTGK | 4.04 h |  |  |  |  |  |  |  |  |  |  | 
10 | MMELMVVHPHIFWLSLGGLLLAAEMLGGNGYLLWSGVAAVITGLVVWLVPLGWEWQGVMFAILTLLAAWLWWKWLSRRVREQKHSDSHLNQRGQQLIGRRFVLESPLVNGRGHMRVGDSSWPVSASEDLGAGTHVEVIAIEGITLHIRAVSS [P0AAS3] | 6.35 ± 0.63 h | 2.86 h | > 8 h | 10.5 ± 1.8 h | 5.91 h | 7.12 h | 6.38 ± 0.81 h | 5.57 ± 0.15 h | 6.81 h | 6.42 ± 0.38 h | 10.6 ± 0.41 h | 11.1 ± 0.17 h
